B1: unnamed (parent)
chain 1: ECPDRWRAEIDLGLPPGVQVGDLLRNEQTMGSLRQVYLLAVQANSITDHLKRFDAVRVPESCRGVVEAQVAKLEAVRSVIWNTMISLAVSGIEMDENGLKALLDKQAGDSLALMEMEKVATALKMD
chain 2: MQKVSLRVTPRLVLEVNRHNAICVATNVPEFYNARGDLNIRDLRAHVKARMISSQFCGYVLVSLLDSEDQVDHLNIFPHVFSERMILYKPNNVNLMEMCALLSMIENAKSPSIGLCREVLGRLTLLHSKCNNLDSLFLYNGARTLLSTLVKYHDLEEGAATPGPWNEGLSLFKLHKELKRAPSEARDLMQSLFLTSGKMGCLARSPKDYCADLNKEEDANSGFTFNLFYQDSLLTKHFQCQTVLQTLRRKCLGSDTVSKIIP

Variants of: B1
Experiment: BLI
Settings: with partner chain of the complex shown; 10 μg ml−1 His-tagged BBRF2Δ(F209K); BSRF1Δ at 500, 250, 125, 62.5, 31.3, 15.6 nM

Variant	Kd [nM]
chain 2 MQKVSLRVTPRLVLEVNRHNAICVATNVPEFYNARGDLNIRDLRAHVKARMISSQFCGYVLVSLLDSEDQVDHLNIFPHVFSERMILYKPNNVNLMEMCALLSMIENAKSPSIGLCREVLGRLTLLHSKCNNLDSLFLYNGARTLLSTLVKYHDLEEGAATPGPWNEGLSLFKLHKELKRAPSEARDLMQSLKLTSGKMGCLARSPKDYCADLNKEEDANSGFTFNLFYQDSLLTKHFQCQTVLQTLRRKCLGSDTVSKIIP [chain 2 F193K]	53.9

Same assay, conditions: with partner chain of the complex shown; 10 μg ml−1 His-tagged BBRF2Δ; BSRF1Δ(M63D) at 500, 250, 125, 62.5, 31.3, 15.6 nM

Variant	Kd [nM]
chain 1 ECPDRWRAEIDLGLPPGVQVGDLLRNEQTDGSLRQVYLLAVQANSITDHLKRFDAVRVPESCRGVVEAQVAKLEAVRSVIWNTMISLAVSGIEMDENGLKALLDKQAGDSLALMEMEKVATALKMD [chain 1 M30D]	126

Same assay, conditions: with partner chain of the complex shown; 10 μg ml−1 His-tagged BBRF2Δ; BSRF1Δ(N59K) at 500, 250, 125, 62.5, 31.3 nM

Variant	Kd [nM]
chain 1 ECPDRWRAEIDLGLPPGVQVGDLLRKEQTMGSLRQVYLLAVQANSITDHLKRFDAVRVPESCRGVVEAQVAKLEAVRSVIWNTMISLAVSGIEMDENGLKALLDKQAGDSLALMEMEKVATALKMD [chain 1 N26K]	59.9
